Here are results for two molecules from publication PMC6310132 (2016).

To fix the notation:
B1: snapin (protein)
chain: AAAGSAAVSGAGTPVAGPTGRDLFAEGLLEFLRPAVQQLDSHVHAVRESQVELREQIDNLATELCRINEDQKVALDLDPYVKKLLNARRRVVLVNNILQNAQERLRRLNHSVAKETARRRAMLDSGVYPPGSPSK

One assay has as its target T1, Dopamine D1A D1A4 (Rattus norvegicus, UniProt P18901).
T1 chain: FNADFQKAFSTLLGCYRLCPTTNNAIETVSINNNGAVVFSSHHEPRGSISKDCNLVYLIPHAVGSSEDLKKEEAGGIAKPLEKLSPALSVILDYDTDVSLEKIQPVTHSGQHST
The assay is described as follows: SPR.

The assay “snapin” has as its target B1. Put plainly: SPR. Background: In SPR one partner is held on a chip, and binding of the other changes the refractive index at the surface.

As a reminder, the Kd is a measure of binding affinity in units of concentration. High values mean a looser complex, low ones a tighter complex.

With B1, binding with Dopamine D1A D1A4 was characterised by a dissociation constant (Kd) of 14.6 nM.

B2: otoferlin C2F (protein)
chain: DMPAPGTPLDISPRKPKKYELRVIVWNTDEVVLEDDDFFTGEKSSDIFVRGWLKGQQEDKQDTDVHYHSLTGEGNFNWRYLFPFDYLAAEEKIVMSKKESMFSWDETEYKIPARLTLQIWDADHFSADDFLGAIELDLNRFPRGAKTAKQCT
B2 had a Kd with snapin of 23.4 nM.
